# Experimental data reported in PMC6007489 (Nucleic Acids Research, 2018).
# Positions count from the first letter of the chain named. Names may count otherwise.
# T1: His–rad1R218A–Rad10 (S. cerevisiae, UniProt P06777 1-1100; P06838 1-210, R218A)
# T1 sequence (looked up) 1: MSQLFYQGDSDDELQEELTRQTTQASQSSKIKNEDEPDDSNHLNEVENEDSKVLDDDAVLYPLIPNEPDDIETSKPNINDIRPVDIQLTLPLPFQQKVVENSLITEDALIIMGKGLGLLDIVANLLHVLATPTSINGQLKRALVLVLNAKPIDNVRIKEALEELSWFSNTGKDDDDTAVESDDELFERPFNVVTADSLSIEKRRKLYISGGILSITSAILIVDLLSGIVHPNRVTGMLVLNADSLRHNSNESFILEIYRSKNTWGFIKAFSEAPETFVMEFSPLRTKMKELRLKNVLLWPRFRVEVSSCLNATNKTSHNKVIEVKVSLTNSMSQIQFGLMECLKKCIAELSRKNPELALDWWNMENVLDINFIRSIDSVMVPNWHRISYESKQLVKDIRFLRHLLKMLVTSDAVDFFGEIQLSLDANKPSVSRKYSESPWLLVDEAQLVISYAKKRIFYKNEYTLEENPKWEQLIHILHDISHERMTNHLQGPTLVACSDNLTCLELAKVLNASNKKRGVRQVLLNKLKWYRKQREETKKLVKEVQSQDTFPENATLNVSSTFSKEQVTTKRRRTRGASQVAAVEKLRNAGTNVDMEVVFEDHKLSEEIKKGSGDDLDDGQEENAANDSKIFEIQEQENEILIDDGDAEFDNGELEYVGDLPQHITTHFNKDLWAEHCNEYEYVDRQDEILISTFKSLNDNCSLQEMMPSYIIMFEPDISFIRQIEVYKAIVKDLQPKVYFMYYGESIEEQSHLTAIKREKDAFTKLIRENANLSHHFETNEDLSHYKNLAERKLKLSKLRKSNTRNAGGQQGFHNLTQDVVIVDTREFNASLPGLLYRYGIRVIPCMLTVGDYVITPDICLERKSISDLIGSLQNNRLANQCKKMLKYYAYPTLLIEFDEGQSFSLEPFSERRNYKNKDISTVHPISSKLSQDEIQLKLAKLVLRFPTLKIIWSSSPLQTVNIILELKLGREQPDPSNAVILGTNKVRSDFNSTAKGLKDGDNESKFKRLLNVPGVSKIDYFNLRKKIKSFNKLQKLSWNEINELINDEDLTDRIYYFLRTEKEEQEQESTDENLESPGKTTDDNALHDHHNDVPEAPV
# T1 sequence (looked up) 2: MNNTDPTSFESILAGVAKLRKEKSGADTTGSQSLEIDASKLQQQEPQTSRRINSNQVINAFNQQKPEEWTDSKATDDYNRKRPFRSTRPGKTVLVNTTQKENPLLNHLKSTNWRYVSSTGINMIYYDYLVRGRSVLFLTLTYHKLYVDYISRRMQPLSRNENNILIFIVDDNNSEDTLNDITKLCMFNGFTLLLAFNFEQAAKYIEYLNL
# B1: Msh2–Msh3 (complex, S. cerevisiae)
# chain 1: MSSTRPELKFSDVSEERNFYKKYTGLPKKPLKTIRLVDKGDYYTVIGSDAIFVADSVYHTQSVLKNCQLDPVTAKNFHEPTKYVTVSLQVLATLLKLCLLDLGYKVEIYDKGWKLIKSASPGNIEQVNELMNMNIDSSIIIASLKVQWNSQDGNCIIGVAFIDTTAYKVGMLDIVDNEVYSNLESFLIQLGVKECLVQDLTSNSNSNAEMQKVINVIDRCGCVVTLLKNSEFSEKDVELDLTKLLGDDLALSLPQKYSKLSMGACNALIGYLQLLSEQDQVGKYELVEHKLKEFMKLDASAIKALNLFPQGPQNPFGSNNLAVSGFTSAGNSGKVTSLFQLLNHCKTNAGVRLLNEWLKQPLTNIDEINKRHDLVDYLIDQIELRQMLTSEYLPMIPDIRRLTKKLNKRGNLEDVLKIYQFSKRIPEIVQVFTSFLEDDSPTEPVNELVRSVWLAPLSHHVEPLSKFEEMVETTVDLDAYEENNEFMIKVEFNEELGKIRSKLDTLRDEIHSIHLDSAEDLGFDPDKKLKLENHHLHGWCMRLTRNDAKELRKHKKYIELSTVKAGIFFSTKQLKSIANETNILQKEYDKQQSALVREIINITLTYTPVFEKLSLVLAHLDVIASFAHTSSYAPIPYIRPKLHPMDSERRTHLISSRHPVLEMQDDISFISNDVTLESGKGDFLIITGPNMGGKSTYIRQVGVISLMAQIGCFVPCEEAEIAIVDAILCRVGAGDSQLKGVSTFMVEILETASILKNASKNSLIIVDELGRGTSTYDGFGLAWAIAEHIASKIGCFALFATHFHELTELSEKLPNVKNMHVVAHIEKNLKEQKHDDEDITLLYKVEPGISDQSFGIHVAEVVQFPEKIVKMAKRKANELDDLKTNNEDLKKAKLSLQEVNEGNIRLKALLKEWIRKVKEEGLHDPSKITEEASQHKIQELLRAIANEPEKENDNYLKYIKALLL
# chain 2: MAGQPTISRFFKKAVKSELTHKQEQEVAVGNGAGSESICLDTDEEDNLSSVASTTVTNDSFPLKGSVSSKNSKNSEKTSGTSTTFNDIDFAKKLDRIMKRRSDENVEAEDDEEEGEEDFVKKKARKSPTAKLTPLDKQVKDLKMHHRDKVLVIRVGYKYKCFAEDAVTVSRILHIKLVPGKLTIDESNPQDCNHRQFAYCSFPDVRLNVHLERLVHHNLKVAVVEQAETSAIKKHDPGASKSSVFERKISNVFTKATFGVNSTFVLRGKRILGDTNSIWALSRDVHQGKVAKYSLISVNLNNGEVVYDEFEEPNLADEKLQIRIKYLQPIEVLVNTDDLPLHVAKFFKDISCPLIHKQEYDLEDHVVQAIKVMNEKIQLSPSLIRLVSKLYSHMVEYNNEQVMLIPSIYSPFASKIHMLLDPNSLQSLDIFTHDGGKGSLFWLLDHTRTSFGLRMLREWILKPLVDVHQIEERLDAIECITSEINNSIFFESLNQMLNHTPDLLRTLNRIMYGTTSRKEVYFYLKQITSFVDHFKMHQSYLSEHFKSSDGRIGKQSPLLFRLFSELNELLSTTQLPHFLTMINVSAVMEKNSDKQVMDFFNLNNYDCSEGIIKIQRESESVRSQLKEELAEIRKYLKRPYLNFRDEVDYLIEVKNSQIKDLPDDWIKVNNTKMVSRFTTPRTQKLTQKLEYYKDLLIRESELQYKEFLNKITAEYTELRKITLNLAQYDCILSLAATSCNVNYVRPTFVNGQQAIIAKNARNPIIESLDVHYVPNDIMMSPENGKINIITGPNMGGKSSYIRQVALLTIMAQIGSFVPAEEIRLSIFENVLTRIGAHDDIINGDSTFKVEMLDILHILKNCNKRSLLLLDEVGRGTGTHDGIAISYALIKYFSELSDCPLILFTTHFPMLGEIKSPLIRNYHMDYVEEQKTGEDWMSVIFLYKLKKGLTYNSYGMNVAKLARLDKDIINRAFSISEELRKESINEDALKLFSSLKRILKSDNITATDKLAKLLSLDIH
# B2: His–rad1R203A,K205A–Rad10 (complex, S. cerevisiae)
# chain 1: T1 sequence (looked up) 1 with R203A, K205A, A218R
# chain 2: T1 sequence (looked up) 2
# How the values were obtained:
# His–rad1R218A–Rad10 = target: T1, His–rad1R218A–Rad10; experiment: co-IP
# Msh2–Msh3 = target: B1; experiment: far-Western, overlay or dot blot
Binder,fold enhancement of the interaction by non-specific DNA (His–rad1R218A–Rad10) [fold],fold lower binding than His–Rad1–Rad10 (Msh2–Msh3) [fold]
B1,~2,
B2,,~4
